Experimental data taken from patent US20220184184A1, “GLUCOSE SENSITIVE INSULIN DERIVATIVES” (Novo Nordisk A/S, priority 2019, published 2022).

B1: compound of Example 272: A14E A22K B25H desB27 desB30 human insulin conjugated with building block of example 29 (ligand)
chain 1: GIVEQCCTSICSLEQLENYCNK
chain 2: FVNQHLCGSHLVEALYLVCGERGFHYPK
modifications: not fully specified; diboron group(s) of example 29, sites only in drawing
notes: number and sites of diboron groups only in drawing
B2: compound of Example 271: A14E A22K B25H desB27 desB30 human insulin conjugated with building block of example 22 (ligand)
chain 1: GIVEQCCTSICSLEQLENYCNK
chain 2: FVNQHLCGSHLVEALYLVCGERGFHYPK
modifications: not fully specified; diboron group(s) of example 22, sites only in drawing
notes: as for B1
B3: Compound of Example 352 (ligand)
chain 1: GIVEQCCTSICSLEQLENYCNK
chain 2: FVNQHLCGSHLVEALYLVCGERGFHYPK
modifications: diboron group of building block of Example 40 on amino group(s); site(s) shown only in the drawing
B4: Compound of Example 349 (ligand)
chain 1: GIVEQCCTSICSLEQLENYCNK
chain 2: FVNQHLCGSHLVEALYLVCGERGFHYPK
modifications: diboron group of building block of Example 38 on amino group(s); site(s) shown only in the drawing
B5: Compound of Example 348 (ligand)
chain 1: GIVEQCCTSICSLEQLENYCNK
chain 2: FVNQHLCGSHLVEALYLVCGERGFHYPK
modifications: diboron group of building block of Example 39 on amino group(s); site(s) shown only in the drawing
B6: Compound of Example 350 (ligand)
chain 1: GIVEQCCTSICSLEQLENYCNK
chain 2: FVNQHLCGSHLVEALYLVCGERGFHYPK
modifications: diboron group of building block of Example 37 on amino group(s); site(s) shown only in the drawing
B7: Compound of Example 166 (ligand)
chain 1: GIVEQCCTSICSLEQLENYCNK
chain 2: FVNQHLCGSHLVEALYLVCGERGFHYPK
modifications: not fully specified; diboron group from building block of example 20; sites only in drawing
B8: Compound of Example 152 (ligand)
chain 1: GIVEQCCTSICSLEQLENYCNK
chain 2: FVNQHLCGSHLVEALYLVCGERGFHYPGK
modifications: not fully specified; diboron group from building block of example 15; sites only in drawing
B9: Compound of Example 154 (ligand)
chain 1: GIVEQCCTSICSLEQLENYCNK
chain 2: FVNQHLCGSHLVEALYLVCGERGFHYPGK
modifications: not fully specified; diboron group from building block of example 19; sites only in drawing
B10: Compound of Example 158 (ligand)
chain 1: GIVEQCCTSICSLEQLENYCNK
chain 2: FVNQHLCGSHLVEALYLVCGERGFHYPGK
modifications: not fully specified; diboron group from building block of example 16; sites only in drawing
B11: Compound of Example 150 (ligand)
chain 1: GIVEQCCTSICSLEQLENYCNK
chain 2: FVNQHLCGSHLVEALYLVCGERGFHYPK
modifications: not fully specified; diboron group from building block of example 18; sites only in drawing
B12: Compound of Example 141 (ligand)
chain 1: GIVEQCCTSICSLEQLENYCNK
chain 2: FVNQHLCGSHLVEALYLVCGERGFHYPK
modifications: diboron group from building block of example 2; sites only in drawing
B13: Compound of Example 155 (ligand)
chain 1: GIVEQCCTSICSLEQLENYCNK
chain 2: FVNQHLCGSHLVEALYLVCGERGFHYPK
modifications: not fully specified; diboron group from building block of example 19; sites only in drawing
B14: Compound of Example 146 (ligand)
chain 1: GIVEQCCTSICSLEQLENYCNK
chain 2: FVNQHLCGSHLVEALYLVCGERGFHYPK
modifications: not fully specified; diboron group from building block of example 16; sites only in drawing
B15: Compound of Example 149 (ligand)
chain 1: GIVEQCCTSICSLEQLENYCNK
chain 2: FVNQHLCGSHLVEALYLVCGERGFHYPK
modifications: not fully specified; diboron group from building block of example 15; sites only in drawing
B16: Compound of Example 139 (ligand)
chain 1: GIVEQCCTSICSLEQLENYCNK
chain 2: FVNQHLCGSHLVEALYLVCGERGFHYPK
modifications: diboron group from building block of example 9; sites only in drawing

Target: T1, human Insulin Receptor A (hIR-A) (human, UniProt P06213-2 28-1370)
T1 construct: Solubilised, semi-purified receptor
Assay: SPA, competition with 125I-insulin on solubilised hIR-A, relative to human insulin
Conditions: not given
Procedure: (§1) BHK cells over-expressing human Insulin Receptor A (hIR-A) were lysed in 50 mM Hepes pH 8.0, 150 mM NaCl, 1% Triton X-100, 2 mM EDTA and 10% glycerol. The cleared cell lysate was batch absorbed with wheat germ agglutinin (WGA)-agarose (Lectin from Triticum vulgaris-Agarose, L1394, Sigma-Aldrich Steinheim, Germany) for 90 minutes. The receptors were washed with 20 volumes 50 mM Hepes pH 8.0, 150 mM NaCl and 0.1% Triton X-100, where after the receptors were eluted with 50 mM Hepes pH 8.0, 150 mM NaCl, 0.1% Triton X-100, 0.5 M n-Acetyl Glucosamine and 10% glycerol. All buffers contained Complete (Roche Diagnostic GmbH, Mannheim, Germany) as described in Andersen et al. 2017 PLos One 12.
(§2) In order to test the glucose sensitivity, the binding experiments were set up in absence or presence of 20 mM glucose. The plates were rocked gently for 22.5 hours at 22° C., centrifuged for 5 minutes at 1000 rpm and counted in TopCounter (Perkin Elmer). Data points were fitted to a four-parameter logistic model, whereby the relative affinity of the analogue compared to human insulin (within the same plate) was determined.

HIR affinity relative HI (%), 1.5% HSA [%] | Molecule
0.2 | B1

Target: T1, human Insulin Receptor A (hIR-A)
Assay: SPA, relative hIR-A affinity at 20 mM over 0 mM glucose
Conditions: not given
Procedure: as §1, §2

HIR glucose factor, 20 mM glucose 1.5% HSA [fold] | Molecule
12.1 | B1
7.1 | B2

Target: T2, human Insulin Receptor A (hIR-A) (human, UniProt P06213-2 28-1370)
T2 construct: Solubilized semi-purified receptor captured on SPA beads through antibody 83-7
Assay: SPA, displacement of 125I-insulin from solubilised hIR-A, 1.5% HSA; increase in relative affinity from 0 to 20 mM glucose
Conditions: not given
Procedure: as §1, §2

HIR glucose factor, 20 mM glucose 1.5% HSA [fold] | Molecule
5.2 | B3
4.7 | B4
7.3 | B5
18.4 | B6

Target: T2, human Insulin Receptor A (hIR-A)
Assay: SPA, displacement of 125I-insulin from solubilised hIR-A, 1.5% HSA, no glucose; affinity relative to human insulin
Conditions: not given
Procedure: as §1, §2

HIR affinity relative HI (%), 1.5% HSA [%] | Molecule
1 | B4
0.2 | B5
0.1 | B6

Target: T3, human Insulin Receptor A (hIR-A) (human, UniProt P06213-2 28-1370)
T3 construct: Solubilised semi-purified receptor captured on SPA beads by antibody 83-7
Assay: SPA, relative hIR-A affinity at 20 mM vs 0 mM glucose, 1.5% HSA
Conditions: not given
Procedure: as §1, §2

HIR glucose factor, 20 mM glucose 1.5% HSA [fold] | Molecule
5.9 | B7
2.9 | B8
3.7 | B9
9.9 | B10
1.3 | B11
2.3 | B12
3 | B13
4.5 | B14
2.8 | B15
3.2 | B16

Target: T3, human Insulin Receptor A (hIR-A)
Assay: SPA competition vs 125I-insulin, hIR-A, 1.5% HSA, no glucose
Conditions: not given
Procedure: as §1, §2

HIR affinity relative HI (%), 1.5% HSA [%] | Molecule
2.2 | B7
4.9 | B8
6.1 | B9
2 | B10
13.3 | B11
8.6 | B12
5.3 | B13
3.5 | B14
6.7 | B15
4 | B16

Tested on: not listed separately
Assay: Alizarin red (ARS) colorimetric displacement assay, binding of boron compounds to glucose
Conditions: statement in words
Procedure: The alizarin-red binding assay is a colorimetric assay used to determine the inhibition affinity of boronate/boroxole compounds to glucose. The assay is based on a colour shift of alizarin-red upon binding to boronate, which shift can be followed by change in absorbance in the 330-340 nm region. […] After 5 minutes of centrifugation at 4000 rpm, the plate is placed in a multi-well spectrometer (SpectraMax, Molecular Devices) for absorption detection. […] Upon complete dissolution of the compound, 200 μM of Alizarin red (ARS) is added to the solution. The ARS-boronate solution is then aliquoted into a 96 multiwell plate (black, flat and clear bottom) 1:1 with appropriate carbohydrate. […] The plate with ARS-boronate mixed with carbohydrate is incubated 20 minutes at room temperature. After 5 minutes of centrifugation at 4000 rpm the plate is placed in a multiwell spectrometer (SpectraMax, Molecular Devices) for absorption detection.

affinity to glucose compared with the diboron compounds | Molecule
weaker affinity to glucose | O=C(O)c1cc(F)c2c(c1)B(O)OC2 [Example 43, 4-fluoro-1-hydroxy-1,3-dihydrobenzo[c][1,2]oxaborole-6-carboxylic acid]
weaker affinity to glucose | O=C(O)c1cc2c(c(C(F)(F)F)c1)COB2O [Example 42, 1-Hydroxy-4-(trifluoromethyl)-1,3-dihydrobenzo[c][1,2]oxaborole-6-carboxylic acid]
